Where two headings read alike, the source gives them in different places.
How the values were obtained:
human VEGFA165 [1] = target: T1, human VEGFA165 (human, UniProt P15692-4 27-191); assay: ELISA, coated human VEGFA165, anti-His detection
T1 construct: Bought protein from two suppliers, treated as one molecule; the supplier is named under assay; also called antigen VEGFA
Description: (§1) Antigen human VEGFA165 (label-free, purchased from Sino Biological, Cat. No.: HPLC-10008-HNAH, hereinafter referred to as VEGFA) was diluted with ELISA coating buffer to a final concentration of 0.3 μg/mL and added to a microplate at 100 μL/well for coating at 4° C. overnight. […] The solution used for antibody dilution was PBS containing 0.1% Tween-20 (pH 7.4), i.e., PBST. After being incubated at 37° C. for 1 h, the microplate was washed 3 times with PBST, and a dilution of His-Tag murine monoclonal antibody (purchased from Proteintech, Cat. No.: 66005-1-Ig) was added. The plate was further incubated at 37° C. for 1 h and washed again. Subsequently, a dilution of HRP-labeled goat anti-mouse IgG antibody (HRP-conjugated Affinipure Goat Anti-Mouse IgG (H+L), purchased from Proteintech, Cat. No.: SA00001-1) was added, and the plate was incubated at room temperature for 45 min. After the plate was washed, 100 μL of TMB (purchased from Tiangen Biotech, Cat. No.: PA107-01) was added to each well for color development at 37° C. for 15 min, followed by the addition of 50 μL of stopping solution. The absorbance at 450 nm (OD450) was measured using a microplate reader.
The purified bivalent humanized nanobodies were evaluated for their VEGFA binding activity, and the experimental procedure was the same as that described in “2.

human VEGFA165 [2] = target: T1, human VEGFA165; assay: ELISA, coated human VEGFA165, anti-His detection; remark: listed apart in the source
Description: as §1

human VEGFA165 [3] = target: T1, human VEGFA165; assay: competitive ELISA, coated VEGFA, competitor VEGFR2-ECD-Fc 1 nM
Description: Antigen VEGFA was diluted with ELISA coating buffer (final concentration of […]) and added to a 96-well microplate at 100 μL/well for coating at 4° C. overnight. […] The plate was incubated at 37° C. for 1 h and washed 3 times with PBST. Subsequently, a dilution of HRP-labeled goat anti-human IgG antibody (HRP-conjugated Goat Anti-Human IgG, purchased from Proteintech, Cat. No.: A21050) was added, and the plate was further incubated at room temperature for 45 min. After the plate was washed, 100 μL of TMB (purchased from Tiangen Biotech, Cat. No.: PA107-01) was added to each well for color development at 37° C. for 15 min, followed by the addition of 50 μL of stopping solution. The absorbance at 450 nm (OD450) was measured using a microplate reader.

human VEGFA165 [4] = target: T1, human VEGFA165; assay: as above; remark: listed apart in the source
human VEGFA165 [5] = target: T1, human VEGFA165; assay: ELISA, coated human VEGFA165, anti-His detection; remark: listed apart in the source
Description: as §1
The experimental procedure was the same as that described in “2.

human VEGFA165 [6] = target: T1, human VEGFA165; assay: SPR Biacore 8K, VEGFA165 on CM5, nanobody analyte, 1:1 fit
Description: Using the Biacore 8K instrument (Cytiva), the antigen VEGFA165 (label-free, purchased from Sino Biological, Cat. No.: HPLC-10008-HNAH) as the ligand was coupled onto a CM5 chip through amino-coupling reagents (EDC and NHS), with the coupling level being about 400 RU. The mobile phase buffer was HBS-EP (0.01 M HEPES pH 7.4, 0.15 M NaCl, 3 mM EDTA, 0.005% v/v Tween 20) during the experiment. […] In the kinetic analysis, the binding time between the antigen and the antibody was 240 s, the dissociation time was 1500 s, and the flow rate was 30 μL/min. In a multi-cycle mode, the chip was regenerated with 100 mM hydrochloric acid.

T1 sequence (P15692 other isoform, or with tags, fused parts or gaps limits assumed): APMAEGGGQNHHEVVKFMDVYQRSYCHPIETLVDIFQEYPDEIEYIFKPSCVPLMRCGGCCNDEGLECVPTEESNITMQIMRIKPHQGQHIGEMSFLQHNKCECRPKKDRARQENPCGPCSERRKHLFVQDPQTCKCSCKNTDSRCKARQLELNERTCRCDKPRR

| Binder | EC50 (human VEGFA165 [2]) | IC50 (human VEGFA165 [4]) | Maximum inhibition rate (%) (human VEGFA165 [4]) | EC50 (human VEGFA165 [5]) | other results |
| --- | --- | --- | --- | --- | --- |
| 2V1-DP-9GS (VHH, Tandem bivalent humanized nanobody) EVQLVESGGGLVQPGGSLRLSCAVSGRTFSSYTMGWFRQAPGKEREFVVAISKGGYKYDSVSLEARFTISRDNSKNTVYLQMNSLRPEDTAVYYCAATRAYGSSRLRLADTYEYWGQGTLVTVSSGGGGSGGGSEVQLVESGGGLVQPGGSLRLSCAVSGRTFSSYTMGWFRQAPGKEREFVVAISKGGYKYDSVSLEARFTISRDNSKNTVYLQMNSLRPEDTAVYYCAATRAYGSSRLRLADTYEYWGQGTLVTVSS | – | – | – | – | EC50 (human VEGFA165 [1]): 0.23 nM |
| 2V41-9GS (VHH, Tandem bivalent nanobody) QLQLVESGGGSVQPGGSLRLSCEVSGRTFSSYTMGWFRQAPGKEREFVVAISKGGYKYDSVSLEARFTISKDNTKNTVYLQMNSLKPEDTAVYYCAGTRAYGSSRLRLAKTYEYWGQGTQVTVSSGGGGSGGGSQLQLVESGGGSVQPGGSLRLSCEVSGRTFSSYTMGWFRQAPGKEREFVVAISKGGYKYDSVSLEARFTISKDNTKNTVYLQMNSLKPEDTAVYYCAGTRAYGSSRLRLAKTYEYWGQGTQVTVSS | 0.27 nM | – | – | – | IC50 (human VEGFA165 [3]): 1.97 nM |
| V1-V40 (bispecific antibody) QLQLVESGGGSVQPGGSLRLSCEVSGRTFSSYTMGWFRQAPGKEREFVVAISKGGYKYDSVSLEARFTISKDNTKNTVYLQMNSLKPEDTAVYYCAATRAYGSSRLRLADTYEYWGQGTQVTVSSGGGGSGGGSQLQLVESGGGSVQPGGSLRLSCEVSGRTFTSYTMGWFRQAPGKEREFVVAISKGGYKYNAVSLEARFTISKDNTKNTVYLQMNSLKPEDTAVYYCAATRAYGSSRLRLAKTYEYWGQGTQVTVSS | 0.42 nM | 3.74 nM | 88.5% | – | – |
| V15-V30 (bispecific antibody) QLQLVESGGGSVQPGGSLRLSCEVSGRTFASYTMGWFRQAPGKEREFVVAISKGGYKYDSVSLEARFTISKDNTKNTVYLQMNSLKPEDTAVYYCAGTRAYGSSRLRLAETYEYWGQGTQVTVSSGGGGSGGGSQLQLVESGGGSVQPGGSLRLSCEVSGRTFSSYTMGWFRQAPGKGREFVVAISKGGYKYDAVSLEARFTISKDNTKNTVYLQMNSLKPEDTAVYYCAATRAYGSSRLRLAKTYEYWGQGTQVTVSS | 0.41 nM | 3.22 nM | 91.2% | – | – |
| V1 (VHH, Monovalent nanobody; tag not described here, the ELISA detects a His tag) VHH: QLQLVESGGGSVQPGGSLRLSCEVSGRTFSSYTMGWFRQAPGKEREFVVAISKGGYKYDSVSLEARFTISKDNTKNTVYLQMNSLKPEDTAVYYCAATRAYGSSRLRLADTYEYWGQGTQVTVSS | – | – | – | 0.52 nM | – |
| V43 (VHH, Monovalent nanobody; tag not described here, the ELISA detects a His tag) VHH: QLQLVESGGGSVQPGGSLRLSCEVSGRTFTSYTMGWFRQAPGKEREFVVAISKGGYKYDSVSLEARFTISKDNTKNTVYLQMNSLKPEDTAVYYCAGTRAYGSSRLRLANTYEYWGQGTQVTVSS | – | – | – | 0.31 nM | Kd (human VEGFA165 [6]): 0.116 nM; koff (human VEGFA165 [6]): 8.63e-05 s⁻¹; kon (human VEGFA165 [6]): 743000 M⁻¹ s⁻¹ |
| V31 (VHH, Monovalent nanobody; tag not described here, the ELISA detects a His tag) VHH: QLQLVESGGGSVQPGGSLRLSCEVSGRTFASYTMGWFRQAPGKEREFVVAISKGGYKYDAVSLEARFTISKDNTKNTVYLQMNSLKPEDTAVYYCAGTRAYGSSRLRLAKTYEYWGQGTQVTVSS | – | – | – | 0.77 nM | – |

The next lines start with results.

| EC50 (human VEGFA165 [2]) | IC50 (human VEGFA165 [4]) | Maximum inhibition rate (%) (human VEGFA165 [4]) | EC50 (human VEGFA165 [5]) | Binder | other results |
| --- | --- | --- | --- | --- | --- |
| 0.26 nM | 4.06 nM | 90.1% | – | V15-V40 (bispecific antibody) QLQLVESGGGSVQPGGSLRLSCEVSGRTFASYTMGWFRQAPGKEREFVVAISKGGYKYDSVSLEARFTISKDNTKNTVYLQMNSLKPEDTAVYYCAGTRAYGSSRLRLAETYEYWGQGTQVTVSSGGGGSGGGSQLQLVESGGGSVQPGGSLRLSCEVSGRTFTSYTMGWFRQAPGKEREFVVAISKGGYKYNAVSLEARFTISKDNTKNTVYLQMNSLKPEDTAVYYCAATRAYGSSRLRLAKTYEYWGQGTQVTVSS | – |
| 0.29 nM | 3.8 nM | 87.8% | – | V1-V15 (bispecific antibody) QLQLVESGGGSVQPGGSLRLSCEVSGRTFSSYTMGWFRQAPGKEREFVVAISKGGYKYDSVSLEARFTISKDNTKNTVYLQMNSLKPEDTAVYYCAATRAYGSSRLRLADTYEYWGQGTQVTVSSGGGGSGGGSQLQLVESGGGSVQPGGSLRLSCEVSGRTFASYTMGWFRQAPGKEREFVVAISKGGYKYDSVSLEARFTISKDNTKNTVYLQMNSLKPEDTAVYYCAGTRAYGSSRLRLAETYEYWGQGTQVTVSS | – |
| 0.17 nM | – | – | 0.17 nM | 2V43-9GS (VHH, Tandem bivalent nanobody) QLQLVESGGGSVQPGGSLRLSCEVSGRTFTSYTMGWFRQAPGKEREFVVAISKGGYKYDSVSLEARFTISKDNTKNTVYLQMNSLKPEDTAVYYCAGTRAYGSSRLRLANTYEYWGQGTQVTVSSGGGGSGGGSQLQLVESGGGSVQPGGSLRLSCEVSGRTFTSYTMGWFRQAPGKEREFVVAISKGGYKYDSVSLEARFTISKDNTKNTVYLQMNSLKPEDTAVYYCAGTRAYGSSRLRLANTYEYWGQGTQVTVSS | – |
| 0.31 nM | – | – | – | 2V29-9GS (VHH, Tandem bivalent nanobody) QLQLVESGGGSVQPGGSLRLSCEVSGRTFSSYTMGWFRQAPGKEREFVVAISKGGYKYDSVSLEARFTISKDNTKNTVYLQMNSLKPEDTAVYYCAGTRAYGSSRLRLANTYEYWGQGTQVTVSSGGGGSGGGSQLQLVESGGGSVQPGGSLRLSCEVSGRTFSSYTMGWFRQAPGKEREFVVAISKGGYKYDSVSLEARFTISKDNTKNTVYLQMNSLKPEDTAVYYCAGTRAYGSSRLRLANTYEYWGQGTQVTVSS | IC50 (human VEGFA165 [3]): 1.77 nM |
| 0.31 nM | 2.84 nM | 91.1% | – | V1-V30 (bispecific antibody) QLQLVESGGGSVQPGGSLRLSCEVSGRTFSSYTMGWFRQAPGKEREFVVAISKGGYKYDSVSLEARFTISKDNTKNTVYLQMNSLKPEDTAVYYCAATRAYGSSRLRLADTYEYWGQGTQVTVSSGGGGSGGGSQLQLVESGGGSVQPGGSLRLSCEVSGRTFSSYTMGWFRQAPGKGREFVVAISKGGYKYDAVSLEARFTISKDNTKNTVYLQMNSLKPEDTAVYYCAATRAYGSSRLRLAKTYEYWGQGTQVTVSS | – |
| 0.31 nM | – | – | 0.31 nM | 2V31-9GS (VHH, Tandem bivalent nanobody) QLQLVESGGGSVQPGGSLRLSCEVSGRTFASYTMGWFRQAPGKEREFVVAISKGGYKYDAVSLEARFTISKDNTKNTVYLQMNSLKPEDTAVYYCAGTRAYGSSRLRLAKTYEYWGQGTQVTVSSGGGGSGGGSQLQLVESGGGSVQPGGSLRLSCEVSGRTFASYTMGWFRQAPGKEREFVVAISKGGYKYDAVSLEARFTISKDNTKNTVYLQMNSLKPEDTAVYYCAGTRAYGSSRLRLAKTYEYWGQGTQVTVSS | – |
| 0.31 nM | 3.32 nM | 89.8% | – | V30-V40 (bispecific antibody) QLQLVESGGGSVQPGGSLRLSCEVSGRTFSSYTMGWFRQAPGKGREFVVAISKGGYKYDAVSLEARFTISKDNTKNTVYLQMNSLKPEDTAVYYCAATRAYGSSRLRLAKTYEYWGQGTQVTVSSGGGGSGGGSQLQLVESGGGSVQPGGSLRLSCEVSGRTFTSYTMGWFRQAPGKEREFVVAISKGGYKYNAVSLEARFTISKDNTKNTVYLQMNSLKPEDTAVYYCAATRAYGSSRLRLAKTYEYWGQGTQVTVSS | – |

Reference: patent US20260234232A1 (QUAERITE BIOPHARM RESEARCH BEIJING, published 2026)
